Series [1] has as its target cysteine-less mutant of Galectin-1 (UniProt P09382). Briefly: AUC; analytical ultracentrifugation (sedimentation) of Galectin-1 purified in reducing or non-reducing conditions.
Series [2] deals with wild-type recombinant soluble LLT1. Briefly: SEC; gel filtration of recombinant soluble LLT1 made in HEK293T; peak at 16 ml taken as the non-covalent dimer. Background: SEC sorts molecules by how far they enter the pores of the column.
Series [3] concerns the molecule itself. Described as above.

This is an account of results in PMC8991485, “Protein purification strategies must consider downstream applications and individual biological characteristics” (Microbial Cell Factories, 2022).

Usually stoichiometry N stands for the number of molecules, sites or subunits per partner or assembly.

For “cysteine-less mutant of Galectin-1 (from UniProt P09382 1-135)”, the stoichiometry N in series [1] stood at 2. As to “wild-type recombinant soluble LLT1 (domain or fragment)”, in series [2], the stoichiometry N was 2.

B1: soluble LLT1 H176C mutant (domain or fragment)
chain: QAACPESWIGFQRKCFYFSDDTKNWTSSQRFCDSQDADLAQVESFQELNFLLRYKGPSDHWIGLSREQGQPWKWINGTEWTRQFPILGAGECAYLNDKGASSARCYTERKWICSKSDIHV
notes: soluble fragment of the lymphocyte receptor LLT1 with H176C, which restores the disulfide Cys163-Cys176; also called second mutant; source: HEK293T cell line, purified (gel filtration)
As for B1, the “stoichiometry N” value in series [3] came out at 2.
